This note sets out measurements from PMC3064480.

The target of test [1] is Recombinant human TβRI-ED (residues 1-101) (human). Kind of test: ELISA. On the technique in general: ELISA stands for enzyme-linked immunosorbent assay.
The target in test [2] is Recombinant human TβRII-ED (residues 1-137) (human). Kind of test: ELISA.

For orientation: Kd means a measure of binding affinity in units of concentration. Usually IC50 stands for the midpoint of a concentration-inhibition curve.

Chain of Recombinant human TβRII-ED (residues 1-137) (human) (P37173 whole entry, the tested form may be a part): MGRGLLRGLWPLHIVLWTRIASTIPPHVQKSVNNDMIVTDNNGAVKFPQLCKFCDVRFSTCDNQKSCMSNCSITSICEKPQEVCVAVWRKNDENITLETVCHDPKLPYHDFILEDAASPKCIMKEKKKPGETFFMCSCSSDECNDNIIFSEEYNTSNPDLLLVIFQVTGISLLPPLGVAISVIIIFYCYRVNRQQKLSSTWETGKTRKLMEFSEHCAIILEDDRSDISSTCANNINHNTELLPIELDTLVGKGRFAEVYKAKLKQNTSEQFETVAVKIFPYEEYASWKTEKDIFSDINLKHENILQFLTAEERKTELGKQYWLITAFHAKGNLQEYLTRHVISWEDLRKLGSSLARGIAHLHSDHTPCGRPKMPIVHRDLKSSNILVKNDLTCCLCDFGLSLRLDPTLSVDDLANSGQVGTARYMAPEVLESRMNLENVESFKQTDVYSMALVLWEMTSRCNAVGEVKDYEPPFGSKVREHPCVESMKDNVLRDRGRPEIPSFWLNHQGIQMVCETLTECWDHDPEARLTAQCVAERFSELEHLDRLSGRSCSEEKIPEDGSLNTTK

Consider MHRMPSFLPTTL [phage clone 2 (M13 phage displaying … on the N-terminus of the PIII protein)], for which the Kd in test [1] came out at 0.0001 µM.

Take LTGKNFPMFHRN [Pep1 (synthetic peptide …)]: in test [1], the IC50 amounted to 110 µM and the Kd is 10 µM. Besides, in test [2], the IC50 worked out at 156 µM and the Kd was found to be 10 µM.

For the molecule LTGKNFPMFHRN [phage clone 1 (M13 phage displaying … on the N-terminus of the PIII protein)], the Kd in test [1] came out at 0.0001 µM.

For MHRMPSFLPTTL [Pep2 (synthetic peptide …)], the figures for the IC50 in test [1] and in test [2] were 256 µM and 274 µM, respectively. Also, the Kd in test [1] and in test [2] was 10 µM each time.
